Target: T1, HA epitope-tagged PI3Kγ (pCMV-PI3 Kp110γ wild type) (Homo sapiens (Human), UniProt P48736 1-1102)
T1 construct: Full-length wild type with HA tag, expressed in transfected NIH-3T3 cells; also called HA-PI3Kγ
Test: co-immunoprecipitation from cytosolic extracts of transfected NIH-3T3 cells

T1 sequence (P48736 other isoform, or with tags, fused parts or gaps limits assumed): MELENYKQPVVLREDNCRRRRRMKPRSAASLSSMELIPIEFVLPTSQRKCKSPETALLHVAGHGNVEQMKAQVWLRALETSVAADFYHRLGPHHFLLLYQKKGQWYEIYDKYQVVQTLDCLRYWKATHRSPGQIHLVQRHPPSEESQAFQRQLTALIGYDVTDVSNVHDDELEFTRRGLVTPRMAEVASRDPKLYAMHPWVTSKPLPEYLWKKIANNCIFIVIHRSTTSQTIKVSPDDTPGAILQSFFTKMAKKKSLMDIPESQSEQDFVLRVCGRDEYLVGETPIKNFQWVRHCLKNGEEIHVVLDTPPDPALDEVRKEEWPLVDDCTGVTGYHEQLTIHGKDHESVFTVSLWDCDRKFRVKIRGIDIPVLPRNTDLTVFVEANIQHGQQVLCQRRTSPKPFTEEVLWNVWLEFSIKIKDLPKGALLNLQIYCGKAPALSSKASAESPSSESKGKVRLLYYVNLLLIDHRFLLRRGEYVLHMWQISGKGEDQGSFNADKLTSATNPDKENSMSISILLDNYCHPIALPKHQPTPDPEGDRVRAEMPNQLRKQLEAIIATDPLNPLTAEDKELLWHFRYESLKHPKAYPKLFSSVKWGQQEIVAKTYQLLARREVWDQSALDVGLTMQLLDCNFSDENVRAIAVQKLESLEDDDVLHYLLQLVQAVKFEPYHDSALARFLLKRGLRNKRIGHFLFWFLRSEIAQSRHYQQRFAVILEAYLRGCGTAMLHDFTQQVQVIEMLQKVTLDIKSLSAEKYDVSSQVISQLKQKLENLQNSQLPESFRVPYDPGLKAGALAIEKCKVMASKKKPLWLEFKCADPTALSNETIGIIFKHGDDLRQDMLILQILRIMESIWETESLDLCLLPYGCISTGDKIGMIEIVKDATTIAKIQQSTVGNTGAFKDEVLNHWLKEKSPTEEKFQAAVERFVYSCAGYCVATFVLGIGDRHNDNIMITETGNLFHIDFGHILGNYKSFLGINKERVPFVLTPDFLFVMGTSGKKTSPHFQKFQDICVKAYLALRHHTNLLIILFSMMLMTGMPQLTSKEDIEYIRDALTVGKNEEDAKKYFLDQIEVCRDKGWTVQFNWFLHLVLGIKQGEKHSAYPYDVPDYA

B1: β-adrenergic receptor kinase 1 (βARK1), bovine cDNA expressed in transfected cells (enzyme, UniProt P21146 1-689, looked up)
chain: MADLEAVLADVSYLMAMEKSKATPAARASKKILLPEPSIRSVMQKYLEDRGEVTFEKIFSQKLGYLLFRDFCLKHLEEAKPLVEFYEEIKKYEKLETEEERLVCSREIFDTYIMKELLACSHPFSKSAIEHVQGHLVKKQVPPDLFQPYIEEICQNLRGDVFQKFIESDKFTRFCQWKNVELNIHLTMNDFSVHRIIGRGGFGEVYGCRKADTGKMYAMKCLDKKRIKMKQGETLALNERIMLSLVSTGDCPFIVCMSYAFHTPDKLSFILDLMNGGDLHYHLSQHGVFSEADMRFYAAEIILGLEHMHNRFVVYRDLKPANILLDEHGHVRISDLGLACDFSKKKPHASVGTHGYMAPEVLQKGVAYDSSADWFSLGCMLFKLLRGHSPFRQHKTKDKHEIDRMTLTMAVELPDSFSPELRSLLEGLLQRDVNRRLGCLGRGAQEVKESPFFRSLDWQMVFLQKYPPPLIPPRGEVNAADAFDIGSFDEEDTKGIKLLDSDQELYRNFPLTISERWQQEVAETVFDTINAETDRLEARKKTKNKQLGHEEDYALGKDCIMHGYMSKMGNPFLTQWQRRYFYLFPNRLEWRGEGEAPQSLLTMEEIQSVEETQIKERKCLLLKIRGGKQFVLQCDSDPELVQWKKELRDAYREAQQLVQRVPKMKNKPRSPVVELSKVPLIQRGSANGL
notes: Over-expressed in NIH-3T3 or HEK 293 cells and immunoprecipitated with a βARK1 monoclonal antibody; also called GRK2; β3ARK1
- binding result: binds

— US20060026702A1 (DUKE UNIVERSITY, published 2006)
